Data on 1 molecule can be found in patent US20080311122A1, “Antagonists of Hmgb1 and/or Rage and Methods of Use Thereof” (Medimmune, LLC, priority 2005, published 2008).

Data set [1] in a line: Differential scanning calorimetry. The data set is classed as physicochemical. More on the design: unit: °C. Particulars: in °C (unit assumed). A general note: Differential scanning calorimetry records heat flow against a reference as temperature is scanned.
Data set [2] deals with T1, HMG2 (Bos taurus, UniProt P40673).
T1 construct: from tissue; host or cells: calf thymus (as read from the sentence)
T1 sequence (P40673 1-209): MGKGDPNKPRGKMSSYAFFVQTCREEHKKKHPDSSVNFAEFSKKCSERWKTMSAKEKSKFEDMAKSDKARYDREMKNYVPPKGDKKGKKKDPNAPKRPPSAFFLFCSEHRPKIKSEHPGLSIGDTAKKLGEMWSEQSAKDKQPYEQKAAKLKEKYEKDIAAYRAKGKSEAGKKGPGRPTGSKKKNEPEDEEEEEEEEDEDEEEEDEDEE
The data set can be described thus: Binding to HMG1 vs. HMG2 ELISA. More on the design: species or system calf. Particulars: immobilized antigen.

The test system of data set [3] is HMG1 (recombinant, native; immobilized, soluble). The data set can be described thus: Direct and sandwich (capture) ELISA comparing forms of HMG1. It counts as binding. Particulars: two ELISA formats, rHMG1. As to the method: Direct ELISA (immobilized HMG1): Individual wells of a 96-well immunoplate (EIA/RIA plate, High binding, Costar) were coated with HMGB-1 at 5 μg/ml in PBS at 4° C. overnight. The plate was then blocked with 4% milk powder dissolved in PBS at 37° C. for 1 hour. The blocking solution was removed and replaced with human anti-HMG1 antibodies at various concentrations (see FIG. 4A). The plate was then washed (ELX-405 Plate washer, BIO-TEK) and secondary antibody (anti-human IgG-HRP, PIERCE) was added at a final concentration of 1:125,000 at 37° C. for 1 hour. HRP activity was detected with Sureblue HRP substrate (KPL). Plates were read at 450 nm using a Kinetic Microplate Reader (Molecular Devices).
Sandwich ELISA (soluble HMG1): Immunoplates (EIA/RIA plate, High binding, Costar) were coated with anti human IgG Fc at 10 μg/ml in PBS (pH 7.2) and incubated at 4° C. overnight. The coating reagent was removed and the plates were rinsed briefly with PBS. The plates were then blocked with 4% milk for 1 hour at 37° C. and rinsed with PBS. The anti-HMG1 antibodies were diluted in 4% milk. For serial dilutions, the antibodies were used at a starting concentration of 20 μg/ml. The diluted anti-HMG1 antibodies were then added into plate and incubated for 1 hr at 37° C. The plate was then washed 10 times with PBST (PBS/0.1% tween 20) and incubate with antigen (HMGB1, 2 μg/ml; or 0.7 μg/ml for native HMGB1) in 4% milk and incubated at 37° C. for 1 h. The plate was then wash 10 times and incubated with mouse anti-HMGB1, 1 μg/ml in 4% milk at 37° C. for 1 h. The plate was washed 10 times and incubated with anti-mouse IgG-HRP at 1:1000 at 37° C. for 1 h. The plate was then washed and developed. HRP activity was detected with Sureblue HRP substrate (KPL). Plates were read at 450 nm using a Kinetic Microplate Reader (Molecular Devices).
Background: In an ELISA, binding on a coated surface is turned into a signal by an enzyme label.

Data set [4] can be described thus: Isoelectric focusing gel electrophoresis. The data set is classed as physicochemical.

B1: G2: human anti-HMG1 IgG1 from Fab phage display library; VL/VH aa SEQ ID NO: 30/32 (antibody, listed as Homo sapiens, V domains shown)
VH: EVQLLESGGGLVQPGGSLRLSCAASGFTFSWYKMQWVRQAPGKGLEWVSGISPSGGSTAYADSVKGRFTISRDNSKNTLYLQMNSLRAEDTAVYYCAKMGLFNTGNSYVDYWGQGTLVTVSS
VL: AQSELTQPPSVSEAPGQRVTISCSGSTSNIGNNAVIWYQQLPGKAPKLLIYYDDLLPSGVSDRFSGSKSGTSGSLAISGLQSEDEADYYCASWDDNLNGPLFGGGTKLTVL
For the molecule B1, the Tm in data set [1] is 67.1. The “relative binding to HMG1 and HMG2” value in data set [2] is on record as “specific for HMG1”. Moreover, the “binding to immobilized versus soluble HMG1” value in data set [3] is on record as “little difference in binding to immobilized or soluble HMG1”. Besides, the PI in data set [4] is reported as 7.78.
